Measurements taken from doi:10.1101/2025.04.28.650843 (bioRxiv, 2025).

Target: the molecule itself
Assay: cryo-EM structure; single-particle reconstruction of intact PBS isolated from Synechococcus 7942 in 0.75 M K/Na-PO4 pH 7.0 with 0.0125% glutaraldehyde; diluted on the grid with 50 mM Tris pH 7.0; 2.98 Å

B1: phycocyanin (PC) (complex)
chain 1: not shown
chain 2: MTFDAFTKVVAQADARGEFLSDAQLDALSRLVAEGNKRIDTVNRITGNASSIVANAARALFAEQPSLIAPGGNAYTNRRMAACLRDMEIILRYVTYAVFTGDASILDDRCLNGLRETYLALGVPGASVAEGVRKMKDAAVAIVSDRNGITQGDCSAIISELGSYFDKAAAAVA
modifications: covalently attached phycocyanobilin (PCB), positions not printed | covalently attached phycocyanobilin (PCB), positions not given
notes: as m5; as m2; The alpha-beta monomer; it forms the hexamers of the peripheral rods (72 alpha-beta monomers in six rods of two hexamers each); also called alpha-beta monomer of phycocyanin
With B1 the “stoichiometry N” value was 6.
